In PMC5909430 (Nucleic Acids Research, 2018):

Experiments:
[1] = target: human eIF4E (human, UniProt P06730 1-217)
[2] = target: T1, LeishIF4E-1 (Leishmania cap-binding isoform 1) (Leishmania major, UniProt E9ADE1 1-214); assay: ITC
T1 sequence (looked up): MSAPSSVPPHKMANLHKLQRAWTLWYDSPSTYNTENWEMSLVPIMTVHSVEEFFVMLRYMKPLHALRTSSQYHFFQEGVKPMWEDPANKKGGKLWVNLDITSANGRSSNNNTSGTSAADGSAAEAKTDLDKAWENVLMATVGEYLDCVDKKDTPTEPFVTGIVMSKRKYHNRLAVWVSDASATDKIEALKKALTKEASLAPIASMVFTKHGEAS

Sequence of human eIF4E (P06730 whole entry, canonical isoform): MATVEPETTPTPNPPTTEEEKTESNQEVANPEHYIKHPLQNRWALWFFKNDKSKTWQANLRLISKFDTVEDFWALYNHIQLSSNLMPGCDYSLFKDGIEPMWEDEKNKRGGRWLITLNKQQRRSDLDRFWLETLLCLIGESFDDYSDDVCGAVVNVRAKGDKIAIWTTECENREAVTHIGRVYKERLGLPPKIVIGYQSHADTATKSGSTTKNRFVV

B1: Leish4E-IP1 (construct not stated; data not shown) (domain or fragment, Leishmania major, UniProt E9AFM3 1-52, looked up)
chain: MPSVRTMYTREELLRIATLASAMDLGPEVLRKFDVIEVAEPVPTPKRRDAES
[1]
  fold lower binding affinity than for LeishIF4E-1: 10 fold

B2: Leish4E-IP1_(1–52) (domain or fragment, Leishmania major, UniProt E9AFM3 1-52, looked up)
chain: B1 chain
[2]
  Kd: 9.7 nM
  dH: -15.5 ± 0.282 kcal/mol

B3: Leish4E-IP1_(1–100) (domain or fragment, Leishmania major, UniProt E9AFM3 1-100, looked up)
chain: MPSVRTMYTREELLRIATLASAMDLGPEVLRKFDVIEVAEPVPTPKRRDAESNFKGSVFTDNFSTSTTITNLGPNGGGNSGGKGGHNSGMNGGGSSSNHP
[2]
  Kd: 87 nM
  dH: -3.11 ± 0.0804 kcal/mol
